Laboratory results published in article PMC5758897 (Nucleic Acids Research, 2017).
Positions count from the first letter of the chain named. Where no end group is shown, it is not given here.

How the values were obtained:
[1] = biological target: YEATS domain of Yaf9 (aa 8–171), wild type (S. cerevisiae) (UniProt P53930); assay: other fluorescence titration
[2] = biological target: T1, YEATS domain of Yaf9 (WT, aa 8–171) (Saccharomyces cerevisiae, UniProt P53930); assay: 1H,15N HSQC NMR titration, Yaf9 YEATS WT; format: binding; details: free acetyllysine (NMR) vs H3K27ac peptide
T1 sequence (P53930 8-171): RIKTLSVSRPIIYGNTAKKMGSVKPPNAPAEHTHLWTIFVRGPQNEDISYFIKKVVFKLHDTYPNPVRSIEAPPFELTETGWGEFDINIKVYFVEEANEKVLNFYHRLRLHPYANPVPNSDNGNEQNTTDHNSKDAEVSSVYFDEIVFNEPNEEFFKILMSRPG

[3] = biological target: T2, AF9 YEATS domain (aa 1–138), wild type (human, UniProt P42568 1-138); assay: other fluorescence titration
T2 sequence (looked up): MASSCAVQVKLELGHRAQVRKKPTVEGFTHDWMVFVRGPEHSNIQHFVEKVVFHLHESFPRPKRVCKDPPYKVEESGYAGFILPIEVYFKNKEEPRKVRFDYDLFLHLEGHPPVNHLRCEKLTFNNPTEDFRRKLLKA

[4] = biological target: T3, YEATS domain of Taf14 (aa 1–137), wild type (yeast, UniProt P35189 1-137); assay: other fluorescence titration
T3 sequence (looked up): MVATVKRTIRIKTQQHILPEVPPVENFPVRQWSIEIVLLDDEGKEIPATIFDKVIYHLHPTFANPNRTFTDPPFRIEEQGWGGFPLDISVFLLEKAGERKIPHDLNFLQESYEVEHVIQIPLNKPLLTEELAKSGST

[5] = biological target: T4, G83E mutant of Taf14-YEATS (aa 1–137) (yeast, UniProt P35189 1-137, G83E); assay: other fluorescence titration
T4 sequence (looked up): T3 sequence (looked up) with G83E

[6] = biological target: T5, D104R mutant of Taf14-YEATS (aa 1–137) (yeast, UniProt P35189 1-137, D104R); assay: other fluorescence titration
T5 sequence (looked up): T3 sequence (looked up) with D104R

[7] = biological target: T6, E91G mutant of Yaf9-YEATS (aa 8–171) (S. cerevisiae, UniProt P53930 8-171, E91G); assay: other fluorescence titration
T6 sequence (looked up): T1 sequence (P53930 8-171) with E84G

Question: Which Kd [1] does the source give for “histone H3K27ac peptide (aa 21–31 of H3) (from UniProt P68431 22-32)” here?
Answer: Its Kd is 10 µM.

Question: Which “binding of free acetyllysine weaker” value [2] does the source give for CC(=O)NCCCC[C@H](N)C(=O)O [Kac, acetyllysine] here?
Answer: Its value is “over 200 fold”.

Question: Does QTARK(Ac)STGG (peptide, UniProt P68431 6-14, looked up, also: biotinylated, site not given here) [histone H3K9ac peptide (aa 5–13 of H3)] bind [3]?
Answer: Result: binds

Question: Does QTARK(Ac)STGG (peptide, UniProt P68431 6-14, looked up, also: biotinylated, site not given here) [histone H3K9ac peptide (aa 5–13 of H3)] bind [4]?
Answer: Result: binds

Question: And the “fold decrease in binding against WT Taf14-YEATS” value [5]?
Answer: Its value is about 2 fold.

Question: Does QTARK(Ac)STGG (peptide, UniProt P68431 6-14, looked up, also: biotinylated, site not given here) [histone H3K9ac peptide (aa 5–13 of H3)] bind [6]?
Answer: Result: binds

Question: And the “fold increase in binding against WT Yaf9-YEATS” value [7]?
Answer: The value was about 1.5 fold.
